Tested on: MS2 coat protein
Assay: apparent KD of MS2 coat protein; designed switch direction (-1 OFF switch, 1 ON switch): -1; higher = weaker reporter binding
Outline: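 The apparent KD reported per design is the median over clusters of curve fits to normalised cluster fluorescence. The RNA switches were transcribed on Illumina chips by stalled E. coli RNA polymerase. SNAP-549-labelled MS2 coat protein was titrated from 0.7 or 1.5 nM, doubling up to 3 µM, in Tris-HCl pH 7.5 buffer containing KCl, MgCl2, BSA, DTT, tRNA and Tween-20, with no input, 200 uM small-molecule ligand, or an oligonucleotide input.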

[1] = input ligand: microRNA oligo, concentration not stated
[2] = Eterna round: R95, input ligand: microRNA oligo, concentration not stated
[3] = Eterna round: R95, input ligand: FMN 200 uM
[4] = Eterna round: R95, input ligand: none

Sequence	apparent KD of MS2 coat protein (input ligand: FMN 200 uM) [µM]	apparent KD of MS2 coat protein [1] [µM]	apparent KD of MS2 coat protein (input ligand: none) [µM]	apparent KD of MS2 coat protein [2] [µM]	apparent KD of MS2 coat protein [3] [µM]	apparent KD of MS2 coat protein [4] [µM]
CCGGUUGGCGCAGGAUAUACAUGAGGAUCACCCAUGUUCAUGAGGAUCAUCCAUGAGUUUUUGUUGUAGAAGGGUGGCCCGGCC (Eterna round: R96, puzzle: Exclusion NG 2)	0.117	0.0608	0.0984			
GAGUAGUAAGGAUAUGUCUCUGGUGGCUUCGGUCACUAGAGGCAGAAGGUACAUGAGGAUCACCCAUGUUCCUC [ExDelusion 7 - Jieux - Exclusion 4] (Eterna round: R97, puzzle: Exclusion 4)	0.22		0.0552			
GCCGUACAUGAGGAUCACCCAUGUCAGGAUAUUUAGCACUCGGAGUUCCCGAGAGGUCAAAGAAGGGACAUUGC [EX1 C.17] (Eterna round: R97, puzzle: Exclusion 1)	0.0216		0.0174			
GGGUGACAUGAGGAUCACCCAUGUCAGGAUAUGAUACUAUGUACUUCGGUACAUAGUAUCAGAAGGGACAUAAA [Ex1-3: 15] (puzzle: Exclusion 1)				0.103		
GUGGAGUAAGGAUAUACAUGAGGAUCACCCAUGUGAGGGUAUGAGAAGGGAAUGAGAGGUAGAAGGUACGAGGA [JR_Exclu3_Sub069] (puzzle: Exclusion 3)				0.106	0.108	0.186
CACUGGACAGGAUAUGUUCUUGAGCACUUGAGGAUCACCCAAGUCAUCAAGAACUCAGGCACAGAAGGGUUUAUGU [salish99_ex5_r4_014] (Eterna round: R97, puzzle: Exclusion 5)	0.0445		0.0158			
CGGCUACGAUGAGGAUAUACGCACAUGAGGAUCACCCAUGUAAAUCACGGGUAAAGAUCUUCAUCGUAGAAGGCAUAAGGGCCC [Edarbelabe] (Eterna round: R96, puzzle: Exclusion NG 2)	0.0318	0.0209	0.0314			
UGAUCUAGCGGAGGAUAUACAUGAGGAUCACCCAUGUAGUAGUGAGUUGCGUACAGCUCACUUGUGUAGAAGGCCGCUAGAUCU [JL ENG2 3.59] (Eterna round: R96, puzzle: Exclusion NG 2)	0.0165	0.0101	0.0127			
GCUUUUGGGCAAGGAUAUCCUGCGCUGUUCUGGUUCGUGUCUGUCACAUGAGGAUCACCCAUGUGGGAGAAGGUGCCUGUGGUG [Design 70] (Eterna round: R96, puzzle: Exclusion NG 2)	0.017	0.0147	0.0192			
GGGCUGUCAGGAUAUUCGAGUUCGAGUGAAAGCUUGAGCUUGAAGAAGGGACAUGAGGAUCACCCAUGUGGCCC [-32.1, -31.1 kcal, A 26%, 1bis-0] (Eterna round: R97, puzzle: Exclusion 4)	0.0305		0.0319			
GACCUAUAGGUAGGAUAUCAUUGCGAUUAGCUAUGAGAAGGACCACAUGAGGAUCACCCAUGUCCUCCAAUUAGCCAUUUGGUC [Fiskers ExNg1 - 7] (Eterna round: R96, puzzle: Exclusion NG 1)	0.196	0.047	0.0583			
CCUCAACAGUAGGAUAUCAUCAAACUAUUGUGAUGAGAAGGACUGACAUGAGGAUCACCCAUGUUAACGUGAUG [Mod of Brourd - Jieux - Exclusion 6] (Eterna round: R97, puzzle: Exclusion 6)	0.176		0.0358			
ACAAGAAUAGGAUAUACAACAUGCCAGCUUCUUUACAACGCACAUGAGGAUCACCCAUGUAGAAGGGUUCUCUG [Exclusion-2-#14] (Eterna round: R97, puzzle: Exclusion 2)	0.36		0.329			
AAGUACCGUCACGAUAGUGAUGGUACAACAAGCAUGUAAACAUGAGGAUCACCCAUGUCCUCGAAUGCUCGUCUUAU [Sensor 3 - 66] (puzzle: Sensor v3, turn-off variant 2)				0.772	0.554	0.519
AGCUGUGGCCGAGGAUAUACACAUGAGGAUCACCCAUGUAGGCGCGGAUACGCGCUAAAAUAAUUGUAGAAGGCGGUCUCAGCA [Eli eng2 - 054] (Eterna round: R96, puzzle: Exclusion NG 2)	0.00388	0.00592	0.0106			

From the supplement of paper PMC9170038
